Experiment [1] deals with GnRHR-DesK191 (human) (UniProt P30968). As to the kind of experiment: radioligand binding; transfected MDA-MB-231 cells in 24-well plates, 90 minutes at room temperature with [125I]-Buserelin in the presence or absence of excess (10 uM) unlabeled Buserelin; cells washed, solubilized and counted; relative affinities given as Ki.
Experiment [2] concerns the target Wild-type gonadotropin-releasing hormone receptor (human) (UniProt P30968). The experiment is described as above.
The target of experiment [3] is endogenous GnRHR of MDA-MB-231 cells (human (endogenous in MDA-MB-231)) (UniProt P30968). Described as above.
Experiment [4] deals with GnRHR-DesK191 (human) (UniProt P30968).

What is called pKi is the negative decadic logarithm of the Ki, by convention in mol/L. A high value points to a low Ki.

pKi: −log10 of the molar value.

For [125I]-Buserelin (peptide), the [125I]-Buserelin binding, percent of WT levels (% of WT levels) in the experiment with GnRHR-DesK191 (human) [1] came to 139.
Take Buserelin (peptide): the pKi in experiment [2] was 6.30; with GnRHR-DesK191 (human) [1] it was 6.15; in experiment [3] it was 5.99. Also, the Buserelin-stimulated inositol phosphate (IP) production in transfected MDA-MB-231 cells, relative to WT GnRHR (% of WT levels) with GnRHR-DesK191 (human) [4] worked out at 590.
